In patent US9260500B2, “Peptide and use thereof” (Takeda Pharmaceutical Company Limited, priority 2009, dated 2016):
Non-standard residues stand in square brackets, D forms with d. No end group written: not given here. *: point of attachment. X11 = ((1S)-1-carboxy-3-methylbutyl)carbamoyl, CC(C)C[C@H](NC(=O)*)C(=O)O; (3-Carboxypropyl)carbamoyl = O=C(O)CCCNC(=O)*; tBuAla = CC(C)(C)C[C@H](N)C(=O)O; 4Pal = N[C@@H](Cc1ccncc1)C(=O)O; Cha = N[C@@H](CC1CCCCC1)C(=O)O; 4Amb = NCc1ccc(C(=O)O)cc1; Isobutyryl = CC(C)C(=O)*; Iva = CC[C@](C)(N)C(=O)O; Nva = CCC[C@H](N)C(=O)O; Abu = CC[C@H](N)C(=O)O; Dap = NC[C@H](N)C(=O)O; Aib = CC(C)(N)C(=O)O; Bz = O=C(c1ccccc1)*

Assays:
male C57EL/6J mice = experiment: 3-Days Continuous Subcutaneous Administration Test-1 (food intake suppressing activity); type: in vivo, mouse; details: 0.03 mg/kg/day, subcutaneous Alzet pump, food consumption over 3 days; relative to food intake suppression rate for PYY(3-36) (1 mg/kg/day) taken as 100%
Procedure: (4) Test Method: 3-Days Continuous Subcutaneous Administration Test-1
The food intake suppressing activity of the compound of the present invention was examined by the method described below.
The test compound was dissolved in 50% DMSO so that sustained release would occur at 0.03 mg/kg/day, and the solution was filled in the Alzet Pump (Alzet model: 1003D, sustained release rate: 1 μL/hr, capacity: 100 μL). After the filling, the pump was placed in a 2 mL Eppendorf tube containing 330 μL of physiological saline, and incubated at 37° C. for 2 hours or more. Thereafter, this pump was subcutaneously embedded in the back of each mouse by the method described below. After weighing, each male […] mice at 12-13 weeks of age (25° C., allowed to take food and water ad libitum; 12-hour bright-12-hour dark cycle, lighting turned on at 08:00) was anesthetized with diethyl ether; the skin in the upper back thereof was incised, and the above-mentioned pump was embedded subcutaneously. Thereafter, several drops of penicillin solution (100000 units/mL) were added to the incised part, and the incision was sutured using Michel's surgical needle. This mouse was returned to the rearing cage (reared alone), and given previously weighed food; 3 days later, the amount of remaining food was measured. Food consumption was calculated by subtracting the amount of remaining food after 3 days from the weight of the food given on the day of pump embedding. The food intake suppressing activity of each test compound was expressed as a food intake suppression rate (%) relative to the food intake suppression rate for PYY(3-36) (1 mg/kg/day) taken as 100%.

human Y2 receptor [1] = target: T1, human Y2 receptor (Homo sapiens, UniProt P49146); experiment: Receptor Binding Assay (RBA) for Human Y2, [125I]-PYY displacement on hY2R/CHO membrane fraction; details: IC50 of test compound/IC50 of PYY(3-36) (PYY(3-36) taken as 1)
T1 construct: expressed in transfected cells; membrane fraction
T1 sequence (P49146 1-381): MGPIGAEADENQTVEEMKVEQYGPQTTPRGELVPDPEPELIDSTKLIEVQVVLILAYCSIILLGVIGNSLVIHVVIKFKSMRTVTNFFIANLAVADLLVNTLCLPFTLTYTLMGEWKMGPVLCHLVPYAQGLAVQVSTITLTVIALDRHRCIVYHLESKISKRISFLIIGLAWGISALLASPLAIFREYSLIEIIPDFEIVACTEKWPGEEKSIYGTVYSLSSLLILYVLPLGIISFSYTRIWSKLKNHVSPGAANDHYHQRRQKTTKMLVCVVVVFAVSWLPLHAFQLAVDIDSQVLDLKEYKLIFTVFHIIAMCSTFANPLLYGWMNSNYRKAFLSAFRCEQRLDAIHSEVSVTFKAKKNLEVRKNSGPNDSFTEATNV
Method in brief: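 hY2R stably expressed in CHO/dhfr− cells; membrane fraction prepared from cells disrupted in 10 mM NaHCO3, 5 mM EDTA buffer with protease inhibitors. Binding read as displacement of [125I]-PYY.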

human Y2 receptor [2] = target: T1, human Y2 receptor; experiment: Human Y2 Receptor G Protein Binding Assay (GBA), [35S]GTPγS; type: biochemical; details: EC50 of test compound/EC50 of PYY(3-36) (PYY3-36 taken as 1), hY2R/CHO membrane fraction
Method in brief: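 Agonism measured as [35S]GTPγS binding, read by GF/C filtration and scintillation counting after 120 min at room temperature, using human Y2 membranes at 1 μg protein/mL in pH 7.4 Tris/MgCl2/NaCl/GDP buffer. Compound serially diluted 100 μM–1 nM; EC50 normalized to PYY(3-36) (ratio = compound/PYY).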

Q: What does the source list for “(3-Carboxypropyl)carbamoyl-[D-Pro24, Iva25, Pya(4)26, Cha27,36, Aib28,31, Lys30]-PYY(23-36) ({(3-Carboxypropyl)carbamoyl}-S[dP][Iva][4Pal][Cha][Aib]NK[Aib]TRQR[Cha]-NH2; SMILES CC[C@](C)(NC(=O)[C@H]1CCCN1C(=O)[C@H](CO)NC(=O)NCCCC(=O)O)C(=O)N[C@@H](Cc1ccncc1)C(=O)N[C@@H](CC1CCCCC1)C(=O)NC(C)(C)C(=O)N[C@@H](CC(N)=O)C(=O)N[C@@H](CCCCN)C(=O)NC(C)(C)C(=O)N[C@H](C(=O)N[C@@H](CCCNC(=N)N)C(=O)N[C@@H](CCC(N)=O)C(=O)N[C@@H](CCCNC(=N)N)C(=O)N[C@@H](CC1CCCCC1)C(N)=O)[C@@H](C)O) [compound No. 328]”?
A: food intake suppression rate (%) (male C57EL/6J mice): 75%; RBA IC50 Ratio (human Y2 receptor [1]): 1.6; GBA EC50 Ratio (human Y2 receptor [2]): 1.9

Q: With “Ac-[D-Pro24, Cha27,36, Leu(Me)28, Lys30, Aib31]-PYY(23-36) (Ac-S[dP]RH[Cha][tBuAla]NK[Aib]TRQR[Cha]-NH2; SMILES CC(=O)N[C@@H](CO)C(=O)N1CCC[C@@H]1C(=O)N[C@@H](CCCNC(=N)N)C(=O)N[C@@H](Cc1c[nH]cn1)C(=O)N[C@@H](CC1CCCCC1)C(=O)N[C@@H](CC(C)(C)C)C(=O)N[C@@H](CC(N)=O)C(=O)N[C@@H](CCCCN)C(=O)NC(C)(C)C(=O)N[C@H](C(=O)N[C@@H](CCCNC(=N)N)C(=O)N[C@@H](CCC(N)=O)C(=O)N[C@@H](CCCNC(=N)N)C(=O)N[C@@H](CC1CCCCC1)C(N)=O)[C@@H](C)O) [compound No. 136]” as the substance, how does the “food intake suppression rate (%)” value (male C57EL/6J mice) read?
A: 10%

Q: For “Ac-[Glu23, D-Pro24, Cha27,28,36, Lys30, Aib31]-PYY(23-36) (Ac-E[dP]RH[Cha][Cha]NK[Aib]TRQR[Cha]-NH2; SMILES CC(=O)N[C@@H](CCC(=O)O)C(=O)N1CCC[C@@H]1C(=O)N[C@@H](CCCNC(=N)N)C(=O)N[C@@H](Cc1c[nH]cn1)C(=O)N[C@@H](CC1CCCCC1)C(=O)N[C@@H](CC1CCCCC1)C(=O)N[C@@H](CC(N)=O)C(=O)N[C@@H](CCCCN)C(=O)NC(C)(C)C(=O)N[C@H](C(=O)N[C@@H](CCCNC(=N)N)C(=O)N[C@@H](CCC(N)=O)C(=O)N[C@@H](CCCNC(=N)N)C(=O)N[C@@H](CC1CCCCC1)C(N)=O)[C@@H](C)O) [compound No. 137]”, which “food intake suppression rate (%)” value (male C57EL/6J mice) is on record?
A: 25%

Q: “[(1S)-1-carboxy-3-methylbutyl]carbamoyl-[D-Pro24, Cha27,36, Leu(Me)28, Lys30, Aib31]-PYY(23-36) (X11-S[dP]RH[Cha][tBuAla]NK[Aib]TRQR[Cha]-NH2; SMILES CC(C)C[C@H](NC(=O)N[C@@H](CO)C(=O)N1CCC[C@@H]1C(=O)N[C@@H](CCCNC(=N)N)C(=O)N[C@@H](Cc1c[nH]cn1)C(=O)N[C@@H](CC1CCCCC1)C(=O)N[C@@H](CC(C)(C)C)C(=O)N[C@@H](CC(N)=O)C(=O)N[C@@H](CCCCN)C(=O)NC(C)(C)C(=O)N[C@H](C(=O)N[C@@H](CCCNC(=N)N)C(=O)N[C@@H](CCC(N)=O)C(=O)N[C@@H](CCCNC(=N)N)C(=O)N[C@@H](CC1CCCCC1)C(N)=O)[C@@H](C)O)C(=O)O) [compound No. 253]” was tested. Which “food intake suppression rate (%)” value (male C57EL/6J mice) did it give?
A: 19%

Q: For “Ac-[D-Pro24, Phe26, Cha27,36, Aib28,31, Lys30]-PYY(23-36) (Ac-S[dP]RF[Cha][Aib]NK[Aib]TRQR[Cha]-NH2; SMILES CC(=O)N[C@@H](CO)C(=O)N1CCC[C@@H]1C(=O)N[C@@H](CCCNC(=N)N)C(=O)N[C@@H](Cc1ccccc1)C(=O)N[C@@H](CC1CCCCC1)C(=O)NC(C)(C)C(=O)N[C@@H](CC(N)=O)C(=O)N[C@@H](CCCCN)C(=O)NC(C)(C)C(=O)N[C@H](C(=O)N[C@@H](CCCNC(=N)N)C(=O)N[C@@H](CCC(N)=O)C(=O)N[C@@H](CCCNC(=N)N)C(=O)N[C@@H](CC1CCCCC1)C(N)=O)[C@@H](C)O) [compound No. 345]”, which “food intake suppression rate (%)” value (male C57EL/6J mice) is on record?
A: 10%

Q: Which results are given for “4-Aminomethylbenzoyl-[Ala26, Ile28, VAl31]-PYY(25-36) ([4Amb]RAYINLVTRQRY-NH2; N-terminus assumed; SMILES CC[C@H](C)[C@H](NC(=O)[C@H](Cc1ccc(O)cc1)NC(=O)[C@H](C)NC(=O)[C@H](CCCNC(=N)N)NC(=O)c1ccc(CN)cc1)C(=O)N[C@@H](CC(N)=O)C(=O)N[C@@H](CC(C)C)C(=O)N[C@H](C(=O)N[C@H](C(=O)N[C@@H](CCCNC(=N)N)C(=O)N[C@@H](CCC(N)=O)C(=O)N[C@@H](CCCNC(=N)N)C(=O)N[C@@H](Cc1ccc(O)cc1)C(N)=O)[C@@H](C)O)C(C)C) [compound No. 39]”?
A: RBA IC50 Ratio (human Y2 receptor [1]): 7.2; GBA EC50 Ratio (human Y2 receptor [2]): 4.0

Q: Which “RBA IC50 Ratio” value (human Y2 receptor [1]) does the source give for “Isobutanoyl-[Abu26, Cha27,36, Ser28, Aib31]-PYY(25-36) (Isobutyryl-R[Abu][Cha]SNL[Aib]TRQR[Cha]-NH2; SMILES CC[C@H](NC(=O)[C@H](CCCNC(=N)N)NC(=O)C(C)C)C(=O)N[C@@H](CC1CCCCC1)C(=O)N[C@@H](CO)C(=O)N[C@@H](CC(N)=O)C(=O)N[C@@H](CC(C)C)C(=O)NC(C)(C)C(=O)N[C@H](C(=O)N[C@@H](CCCNC(=N)N)C(=O)N[C@@H](CCC(N)=O)C(=O)N[C@@H](CCCNC(=N)N)C(=O)N[C@@H](CC1CCCCC1)C(N)=O)[C@@H](C)O) [compound No. 102]” here?
A: 49

Q: And the “GBA EC50 Ratio” value (human Y2 receptor [2])?
A: 35

Q: Which “RBA IC50 Ratio” value (human Y2 receptor [1]) does the source give for “Ac-[D-Pro24, Iva25, Pya(4)26, Cha27,36, Nva28, Aib31, Lys30]-PYY(23-36) (Ac-S[dP][Iva][4Pal][Cha][Nva]NK[Aib]TRQR[Cha]-NH2; SMILES CCC[C@H](NC(=O)[C@H](CC1CCCCC1)NC(=O)[C@H](Cc1ccncc1)NC(=O)[C@](C)(CC)NC(=O)[C@H]1CCCN1C(=O)[C@H](CO)NC(C)=O)C(=O)N[C@@H](CC(N)=O)C(=O)N[C@@H](CCCCN)C(=O)NC(C)(C)C(=O)N[C@H](C(=O)N[C@@H](CCCNC(=N)N)C(=O)N[C@@H](CCC(N)=O)C(=O)N[C@@H](CCCNC(=N)N)C(=O)N[C@@H](CC1CCCCC1)C(N)=O)[C@@H](C)O) [compound No. 352]” here?
A: 1.6

Q: What about the “GBA EC50 Ratio” value (human Y2 receptor [2]) of the same substance?
A: 1.3

Q: How did the “RBA IC50 Ratio” value (human Y2 receptor [1]) turn out when “Benzoyl-[Cha27,36, Ile28, Dap31]-PYY(25-36) (Bz-RH[Cha]INL[Dap]TRQR[Cha]-NH2; SMILES CC[C@H](C)[C@H](NC(=O)[C@H](CC1CCCCC1)NC(=O)[C@H](Cc1c[nH]cn1)NC(=O)[C@H](CCCNC(=N)N)NC(=O)c1ccccc1)C(=O)N[C@@H](CC(N)=O)C(=O)N[C@@H](CC(C)C)C(=O)N[C@@H](CN)C(=O)N[C@H](C(=O)N[C@@H](CCCNC(=N)N)C(=O)N[C@@H](CCC(N)=O)C(=O)N[C@@H](CCCNC(=N)N)C(=O)N[C@@H](CC1CCCCC1)C(N)=O)[C@@H](C)O) [compound No. 69]” was run?
A: 37

Q: And the “GBA EC50 Ratio” value (human Y2 receptor [2])?
A: 28

Q: “Benzoyl-[Asn26, Cha27,28,36, Aib31]-PYY(25-36) (Bz-RN[Cha][Cha]NL[Aib]TRQR[Cha]-NH2; SMILES CC(C)C[C@H](NC(=O)[C@H](CC(N)=O)NC(=O)[C@H](CC1CCCCC1)NC(=O)[C@H](CC1CCCCC1)NC(=O)[C@H](CC(N)=O)NC(=O)[C@H](CCCNC(=N)N)NC(=O)c1ccccc1)C(=O)NC(C)(C)C(=O)N[C@H](C(=O)N[C@@H](CCCNC(=N)N)C(=O)N[C@@H](CCC(N)=O)C(=O)N[C@@H](CCCNC(=N)N)C(=O)N[C@@H](CC1CCCCC1)C(N)=O)[C@@H](C)O) [compound No. 99]” was tested. Which “RBA IC50 Ratio” value (human Y2 receptor [1]) did it give?
A: 19

Q: What about the “GBA EC50 Ratio” value (human Y2 receptor [2]) of the same substance?
A: 21
